Here are results for 5 substances from patent US20100028415A1.

The target in one assay is centromere B (UniProt P07199). Description: Luminex AtheNA Multi-Lyte ANA Test, 0.15 µg mab per test.
The target in a further assay is histones. The description is as above.
A further assay has as its target Mab 4E10. Description: competition ELISA: gp140 (19.25-1230 nM) mixed with 10 µg/ml 4E10 MAb, added to wells with 1.35 µg cardiolipin. In general terms: ELISA stands for enzyme-linked immunosorbent assay.
A further assay deals with SS-A/Ro. The experiment in a line: Luminex AtheNA Multi-Lyte ANA Test, 0.15 µg mab per test.

Chain of UniProt P07199 (P07199 2-599 limits assumed): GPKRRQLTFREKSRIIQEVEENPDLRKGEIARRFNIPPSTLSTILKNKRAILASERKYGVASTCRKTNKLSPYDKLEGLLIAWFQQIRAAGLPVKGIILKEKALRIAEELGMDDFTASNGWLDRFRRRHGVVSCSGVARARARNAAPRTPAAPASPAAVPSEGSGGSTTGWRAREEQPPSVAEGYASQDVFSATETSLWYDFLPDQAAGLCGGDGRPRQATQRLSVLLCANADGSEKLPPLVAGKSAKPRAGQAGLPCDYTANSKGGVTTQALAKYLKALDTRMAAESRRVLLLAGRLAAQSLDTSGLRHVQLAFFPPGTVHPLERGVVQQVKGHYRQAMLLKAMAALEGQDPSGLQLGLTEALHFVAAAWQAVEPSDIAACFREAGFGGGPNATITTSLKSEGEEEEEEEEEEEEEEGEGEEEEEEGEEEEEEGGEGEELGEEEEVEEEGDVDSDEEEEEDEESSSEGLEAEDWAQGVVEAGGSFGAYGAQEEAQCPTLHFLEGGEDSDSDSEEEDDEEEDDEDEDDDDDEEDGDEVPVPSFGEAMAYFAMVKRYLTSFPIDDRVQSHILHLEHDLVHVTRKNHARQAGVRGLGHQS

Consider Mab IgG1b12 (antibody), for which, in the assay with centromere B, the centromere B antibody value (relative units based on a standard curve) (relative units) was 479. Also, the histone antibody value (relative units based on a standard curve) (relative units) with histones was found to be 185.
In the assay with centromere B, A32 (antibody) showed a centromere B antibody value (relative units based on a standard curve) (relative units) of 1130.
For “soluble HIV-1 Env gp140 oligomers (CON-S)”, the IC50 (in general, the concentration at which inhibition is half-maximal) in the assay with Mab 4E10 was 145 nM.
In the assay with SS-A/Ro, Mab 4E10 (antibody) returned a Ro (SSA) antibody value (relative units based on a standard curve) (relative units) of 221.
In the assay with SS-A/Ro, Mab 2F5 (antibody) had a Ro (SSA) antibody value (relative units based on a standard curve) (relative units) of 290. Further, the centromere B antibody value (relative units based on a standard curve) (relative units) in the assay with centromere B was 1780. This substance also yielded a histone antibody value (relative units based on a standard curve) (relative units) in the assay with histones of 1010.
